Reference: patent US20100015637A1 (AbbVie / Abbott, published 2010)
Blank lines part the entries; values can stand above or below the molecule they belong to.

What was measured:
[1] = target: human PlGF-1 comprising amino acids 1-137 produced in human embryonic kidney cells (human) (UniProt P49763); assay: Format 2 …, capture MAb264, detection Pb264; sFlt-1 0 pmol/L (ratio 0)
[2] = target: human PlGF-1 comprising amino acids 1-137 produced in human embryonic kidney cells (human) (UniProt P49763); assay: Format 1 …, capture 2-826-335, detection 1-255-713; sFlt-1 3067 pmol/L (ratio 100)
[3] = target: human PlGF-1 comprising amino acids 1-137 produced in human embryonic kidney cells (human) (UniProt P49763); assay: Format 3 Quantikine ELISA, capture MAb264, detection Pb264; sFlt-1 1227 pmol/L (ratio 40)
[4] = target: human PlGF-1 comprising amino acids 1-137 produced in human embryonic kidney cells (human) (UniProt P49763); assay: Format 2 …, capture MAb264, detection Pb264; sFlt-1 3067 pmol/L (ratio 100)
[5] = target: T1, human PlGF-1 fragment (comprising amino acids 17-131) produced in human embryonic kidney cells (human, UniProt P49763 35-221); assay: … sandwich, capture MAb255, detection pAb264; antigen 750 pg/mL
T1 sequence: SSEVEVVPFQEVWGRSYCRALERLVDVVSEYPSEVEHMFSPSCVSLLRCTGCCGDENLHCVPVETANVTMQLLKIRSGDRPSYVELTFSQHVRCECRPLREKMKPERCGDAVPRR

[6] = target: T2, human PlGF-1 comprising amino acids 1-137 produced in human embryonic kidney cells (human, UniProt P49763 19-221); assay: as above
T2 construct: Mature human PlGF-1 with 6xHis tag; also called HEK (1-137); full length HEK human PlGF-1 (1-137)
T2 sequence: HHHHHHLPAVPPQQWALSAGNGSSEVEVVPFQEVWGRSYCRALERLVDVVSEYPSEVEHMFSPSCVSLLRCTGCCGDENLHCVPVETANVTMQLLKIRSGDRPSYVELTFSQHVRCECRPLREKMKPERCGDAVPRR

[7] = target: T3, CHO human PlGF-1 comprising amino acids 1-137 (human PlGF-1-His (1-131), CHO 6305) (human, UniProt P49763 19-221, N-glycans at N21 (completely glycosylated) and N89 (partially glycosylated)); assay: as above
T3 construct: Mature human PlGF-1 with 6xHis tag (137 amino acids); also called CHO (1-137)
T3 sequence: T2 sequence

[8] = target: T4, CHO human PlGF-1 fragment (comprising amino acids 17-131; ATCC PTA-8540) (human, UniProt P49763 35-221); assay: as above
T4 sequence: T1 sequence

[9] = target: recombinant human PlGF-1 (comprising amino acids 1-131) expressed in E. coli (R&D Systems) (human) (UniProt P49763); assay: … sandwich, capture MAb255, detection MAb826; antigen 60 pg/mL
[10] = target: recombinant human PlGF-1 (comprising amino acids 1-131) expressed in E. coli (R&D Systems) (human) (UniProt P49763); assay: … sandwich, capture MAb255, detection pAb264; antigen 750 pg/mL
[11] = target: T4, CHO human PlGF-1 fragment (comprising …); assay: … sandwich, capture MAb255, detection MAb826; antigen 750 pg/mL
Procedure, shortened: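 In a sandwich immunoassay, human PlGF-1 antigen preparations, including recombinant forms expressed in CHO cells, were tested at 0 to 1500 pg/mL. Magnetic microparticles carried a monoclonal anti-human PlGF-1 capture antibody, attached by passive coating and EDAC cross-linking, and a second monoclonal anti-human PlGF-1 antibody labeled with acridinium ester served for detection. At each antigen level, the chemiluminescent signal was read in relative light units (RLU).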

[12] = target: T1, human PlGF-1 fragment (comprising amino …); assay: … sandwich, capture MAb255, detection pAb264; antigen 250 pg/mL
[13] = target: T2, human PlGF-1 comprising amino acids …; assay: as above
[14] = target: T3, CHO human PlGF-1 comprising amino acids …; assay: as above
[15] = target: T4, CHO human PlGF-1 fragment (comprising …); assay: as above
[16] = target: recombinant human PlGF-1 (comprising amino acids 1-131) expressed in E. coli (R&D Systems) (human) (UniProt P49763); assay: … sandwich, capture MAb255, detection MAb826; antigen 250 pg/mL
[17] = target: recombinant human PlGF-1 (comprising amino acids 1-131) expressed in E. coli (R&D Systems) (human) (UniProt P49763); assay: … sandwich, capture MAb826, detection pAb264; antigen 1500 pg/mL
[18] = target: recombinant human PlGF-1 (comprising amino acids 1-131) expressed in E. coli (R&D Systems) (human) (UniProt P49763); assay: … sandwich, capture MAb826, detection pAb264; antigen 750 pg/mL
[19] = target: recombinant human PlGF-1 (comprising amino acids 1-131) expressed in E. coli (R&D Systems) (human) (UniProt P49763); assay: … sandwich, capture MAb826, detection pAb264; antigen 250 pg/mL

% Inhibition [1]: 0%
PlGF-1 Measured [1]: 786 pg/mL
% Inhibition [2]: 94.1%
PlGF-1 Measured [2]: 60.3 pg/mL
% Inhibition [3]: 51.8%
PlGF-1 Measured [3]: 417 pg/mL
% Inhibition [4]: 95.7%
PlGF-1 Measured [4]: 33.8 pg/mL
Molecule: native sFlt-1, isolated from human placental tissue (from UniProt P17948 27-687) (receptor)

RLU [5]: 908000 RLU
RLU [6]: 1.31e+06 RLU
RLU [7]: 599000 RLU
RLU [8]: 713000 RLU
RLU [9]: 83200 RLU
RLU [10]: 1.32e+06 RLU
RLU [11]: 395000 RLU
RLU [12]: 363000 RLU
RLU [13]: 559000 RLU
RLU [14]: 226000 RLU
RLU [15]: 283000 RLU
RLU [16]: 298000 RLU
B1: monoclonal antibody 1-255-713 (produced by murine hybridoma cell line 1-255-713, ATCC PTA-8536) (antibody, mouse IgG2a, V domains shown)
VH: QVHLQQSGAELMKPGASVKISCKATGYTFSSYWIEWVKQRPGHGLEWIGEILPGSVSNNFNEKFKDKATLTADPSSNTAYIQVSSLTSEDSAVYYCARSTGFYYGGNYFDHWGQGTTLAVSS
VL: DVVMTQTPLSLPVSPGDQASISCRSSQSLVHSNGHTYLHWYLQKPGQSPKLLIYKVSNRFSGVPDRVSGSGSGTDFTLKISRVEAEDLGVYFCSQSTHVPPTFGGGTKLEIKR
notes: also called MAb255

RLU [17]: 1.08e+06 RLU
RLU [18]: 606000 RLU
RLU [19]: 231000 RLU
B2: monoclonal antibody 2-826-335 (produced by murine hybridoma cell line 2-826-335, ATCC PTA-8539) (antibody, mouse IgG1, V domains shown)
VH: QVQLKQSGPGLVQPSQSLSITCTVSGFSLTTYGIHWVRQSPGKGLEWLGVMWSGGDTDYDAAFISRLSISKDNSKSQVFFKMNSLQANDTGIYYCARYRFYGMDYWGQGTSVTVSS
VL: AIQMTQSSSSFSVSLGDRVTITCKASEDIYNRFAWYQQKPGNAPRLLISGAASLEAGVPSRFSGSGSGQDYTLSITSLQTEDVATYYCQQYWSTPWTFGGGTKLEIKR
notes: also called MAb826
